Experimental data: patent publication US20250333467A1 (TECTONIC OPERATING, published 2025)
Numbering of substitutions follows the chain as printed.

T1: human RXFP1 (human, UniProt Q9HBX9 1-757)
T1 sequence (looked up): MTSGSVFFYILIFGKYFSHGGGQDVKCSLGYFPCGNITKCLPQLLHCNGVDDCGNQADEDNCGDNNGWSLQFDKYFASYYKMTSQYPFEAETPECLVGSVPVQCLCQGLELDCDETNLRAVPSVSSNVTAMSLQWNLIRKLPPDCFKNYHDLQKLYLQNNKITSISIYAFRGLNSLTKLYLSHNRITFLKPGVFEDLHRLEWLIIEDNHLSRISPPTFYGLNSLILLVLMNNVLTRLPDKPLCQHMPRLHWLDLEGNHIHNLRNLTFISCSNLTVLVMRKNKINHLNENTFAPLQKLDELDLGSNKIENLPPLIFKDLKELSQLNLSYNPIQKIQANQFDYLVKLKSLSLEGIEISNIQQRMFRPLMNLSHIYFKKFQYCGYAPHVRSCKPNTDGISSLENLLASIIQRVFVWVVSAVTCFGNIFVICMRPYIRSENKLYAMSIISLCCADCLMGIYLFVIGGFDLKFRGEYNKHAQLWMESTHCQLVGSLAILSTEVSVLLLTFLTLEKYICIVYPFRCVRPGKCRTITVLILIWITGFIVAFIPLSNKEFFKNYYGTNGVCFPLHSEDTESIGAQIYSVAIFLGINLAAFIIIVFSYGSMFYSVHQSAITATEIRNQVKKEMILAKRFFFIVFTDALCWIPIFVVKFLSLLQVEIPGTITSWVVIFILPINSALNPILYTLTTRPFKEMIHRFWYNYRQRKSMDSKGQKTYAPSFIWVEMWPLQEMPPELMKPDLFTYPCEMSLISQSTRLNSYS

B1: SEQ ID NO: 368 (Fc fusion)
chain: DKTHTCPPCPAPEAAGGPSVFLFPPKPKDTLMISRTPEVTCVVVDVSHEDPEVKFNWYVDGVEVHNAKTKPREEQYNSTYRVVSVLTVLHQDWLNGKEYKCKVSNKALAAPIEKTISKAKGQPREPQVYTLPPSRDELTKNQVSLTCLVKGFYPSDIAVEWESNGQPENNYKTTPPVLDSDGSFFLYSKLTVDKSRWQQGNVFSCSVLHEALHSHYTQKSLSLSPGGGSDSWQEEVIKLCGRELVRAQIAICGKSTGGEGGGEEGGGEGGQLYSALANKCCHVGCTKRSLARFC
B2: SEQ ID NO: 327 (Fc fusion)
chain: B1 chain with G261E, E263G, G266E, E268G, G269S, G270R
B3: SEQ ID NO: 315 (Fc fusion)
chain: B1 chain with E259G, G260E, E263G, G270R
B4: SEQ ID NO: 328 (Fc fusion)
chain: B1 chain with G261E, E263G, G266E, E268G, G269S, G270R, R292Q
B5: SEQ ID NO: 325 (Fc fusion)
chain: B1 chain with E259G, G260E, G261E, E263G, E264G, G265E, G266E, E268G, G270R, R292Q
B6: SEQ ID NO: 369 (Fc fusion)
chain: DKTHTCPPCPAPEAAGGPSVFLFPPKPKDTLMISRTPEVTCVVVDVSHEDPEVKFNWYVDGVEVHNAKTKPREEQYNSTYRVVSVLTVLHQDWLNGKEYKCKVSNKALAAPIEKTISKAKGQPREPQVYTLPPSRDELTKNQVSLTCLVKGFYPSDIAVEWESNGQPENNYKTTPPVLDSDGSFFLYSKLTVDKSRWQQGNVFSCSVLHEALHSHYTQKSLSLSPGKGGSDSWKEEVIKLCGRELVRAQIAICGKSTASDAAGANANAGARQLYSALANKCCHVGCTKRSLAQFC
B7: SEQ ID NO: 370 (Fc fusion)
chain: B6 chain with Q293E
B8: SEQ ID NO: 85 (Fc fusion)
chain: B6 chain with K234Q, N267D
B9: SEQ ID NO: 88 (Fc fusion)
chain: B6 chain with K234Q, N265Q, N267D
B10: SEQ ID NO: 89 (Fc fusion)
chain: B6 chain with K234Q, N265D, N267Q
B11: SEQ ID NO: 84 (Fc fusion)
chain: B6 chain with K234Q, N265D
B12: SEQ ID NO: 361 (Fc fusion)
chain: DKTHTCPPCPAPEAAGGPSVFLFPPKPKDTLMISRTPEVTCVVVDVSHEDPEVKFNWYVDGVEVHNAKTKPREEQYNSTYRVVSVLTVLHQDWLNGKEYKCKVSNKALAAPIEKTISKAKGQPREPQVYTLPPSRDELTKNQVSLTCLVKGFYPSDIAVEWESNGQPENNYKTTPPVLDSDGSFFLYSKLTVDKSRWQQGNVFSCSVLHEALHSHYTQKSLSLSPGKGGSDSWKEEVIKLCGRELVRAQIAICGKSTGGGEGGGEGGGEGRQLYSALANKCCHVGCTKRSLARFC
B13: SEQ ID NO: 365 (Fc fusion)
chain: B12 chain with K234M, G260E, E261G, G264E, R271G
B14: SEQ ID NO: 319 (Fc fusion)
chain: B12 chain with K234Q, G262E, E265G, G266E, G267E, E269G
B15: SEQ ID NO: 363 (Fc fusion)
chain: B12 chain with K234M
B16: SEQ ID NO: 321 (Fc fusion)
chain: B12 chain with K234Q, G262E, E265G, G266E, G267E, E269G, R293Q
B17: SEQ ID NO: 304 (Fc fusion)
chain: B12 chain with K234Q
B18: SEQ ID NO: 326 (Fc fusion)
chain: B12 chain with K234Q, G260E, E261G, G262E, G267E, E269G, G270S, R293Q
B19: SEQ ID NO: 366 (Fc fusion)
chain: B12 chain with K234Q, G260E, E261G, G264E, R271G
B20: SEQ ID NO: 362 (Fc fusion)
chain: DKTHTCPPCPAPEAAGGPSVFLFPPKPKDTLMISRTPEVTCVVVDVSHEDPEVKFNWYVDGVEVHNAKTKPREEQYNSTYRVVSVLTVLHQDWLNGKEYKCKVSNKALAAPIEKTISKAKGQPREPQVYTLPPSRDELTKNQVSLTCLVKGFYPSDIAVEWESNGQPENNYKTTPPVLDSDGSFFLYSKLTVDKSRWQQGNVFSCSVLHEALHSHYTQKSLSLSPGKGGSDSWKEEVIKLCGRELVRAQIAICGKSTGGGEGGGEGGGEGGGQLYSALANKCCHVGCTKRSLARFC
B21: SEQ ID NO: 307 (Fc fusion)
chain: B20 chain with K234Q
B22: SEQ ID NO: 364 (Fc fusion)
chain: B20 chain with K234M

Target: T1, human RXFP1
Assay: cell-based or functional assay

Row | Binder | Potency (cAMP, transient hRXFP1 in HEK293) [nM]
1 | B1 | 101
2 | B2 | 9.3
3 | B3 | 3.3
4 | B4 | 41.9
5 | B5 | 23.4
6 | B6 | 0.5
7 | B7 | 1.8
8 | B8 | 2
9 | B9 | 1.4
10 | B10 | 2.5
11 | B11 | 1.9
12 | B12 | 2.5
13 | B13 | 60.3
14 | B14 | 5.8
15 | B15 | 2.9
16 | B16 | 10.2
17 | B17 | 2.5
18 | B18 | 18.9
19 | B19 | 62.8
20 | B20 | 12.3
21 | B21 | 15.8
22 | B22 | 16
